# T1: CEACAM5-D2-312* (human, UniProt P06731 35-311)
# T1 sequence (looked up): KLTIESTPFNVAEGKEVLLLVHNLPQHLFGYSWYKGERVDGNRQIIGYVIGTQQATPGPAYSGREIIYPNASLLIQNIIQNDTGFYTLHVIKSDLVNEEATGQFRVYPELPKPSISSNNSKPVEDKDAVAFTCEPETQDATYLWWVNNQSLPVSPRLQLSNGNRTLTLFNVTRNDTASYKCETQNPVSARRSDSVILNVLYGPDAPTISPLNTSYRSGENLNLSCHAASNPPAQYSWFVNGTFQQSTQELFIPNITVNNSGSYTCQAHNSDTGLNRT
# B1: NEO-201 (antibody, human IgG1, kappa, V domains shown)
# VH: QVQLVQSGAEVKKPGASVKVSCKASGYTFTDYAMHWVRQAPGQRLEWMGLISTYSGDTKYNQNFQGRVTMTVDKSASTAYMELSSLRSEDTAVYYCARGDYSGSRYWFAYWGQGTLVTVSS
# VL: DIQMTQSPSSLSASVGDRVTITCQASENIYGALNWYQRKPGKSPKLLIYGASNLATGMPSRFSGSGSGTDYTFTISSLQPEDIATYYCQQVLSSPYTFGGGTKLEIKR
# notes: also called H16C3-Abb*
# Molecular target: T1, CEACAM5-D2-312*
# Test: ELISA on truncated CEACAM5 from transfected-cell supernatant
# Procedure: Different truncated C-terminus CEACAM6 gene constructs were designed as illustrated in FIG. 13. […] Different truncated C-terminus CEACAM5 gene constructs were designed as illustrated in FIG. 15. The procedure for the expression of the truncated C-terminus constructs was the same as to the method described above. All deletions were transfected into HEK293T cells, harvest the cell pellet and/or supernatant after 48-72 hours. Supernatant binding activity was quantitated by ELISA.
binder,measurement,value
B1,binding result,no binding

# Source: patent US20240384003A1 (PRECISION BIOLOGICS, published 2024)
